Values of other authors as cited in publication PMC4364296.
Where “and” joins values, the source holds several entries; their conditions need not be identical. Equal entries are not always repeated. Where two headings read alike, the source gives them in different places.

Experiments:
[1] = biological target: ZipA (Escherichia coli) (UniProt P77173)
[2] = biological target: ZipA (Escherichia coli) (UniProt P77173); remark: listed apart in the source

FtsZ, sequence (P0A9A6 whole entry): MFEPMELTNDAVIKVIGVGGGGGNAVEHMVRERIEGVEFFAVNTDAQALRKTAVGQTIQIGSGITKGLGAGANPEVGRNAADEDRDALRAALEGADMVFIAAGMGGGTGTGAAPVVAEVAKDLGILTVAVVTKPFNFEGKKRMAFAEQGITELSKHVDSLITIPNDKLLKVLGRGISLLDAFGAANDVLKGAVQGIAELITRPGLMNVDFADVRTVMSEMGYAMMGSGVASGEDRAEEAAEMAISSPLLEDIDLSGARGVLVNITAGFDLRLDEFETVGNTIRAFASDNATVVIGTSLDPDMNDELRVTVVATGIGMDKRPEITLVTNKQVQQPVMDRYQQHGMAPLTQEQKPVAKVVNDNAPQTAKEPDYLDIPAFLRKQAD

Substance	Kd [1] [µM]	Kd [2]
FtsZ (from UniProt P0A9A6)	40	–
FtsZ CCTP peptide CCTP (from UniProt P0A9A6)	–	35 µM and 21.6 µM
